# Assay results taken from US20160040196A1, “ENZYMATIC CONVERSION OF BOTH ENANTIOMERS OF 1,2-PROPANEDIOL TO PROPIONALDEHYDE” (University of Georgia Research Foundation, Inc., priority 2014, published 2016).
# B1: B12-independent diol dehydratase from R. inulinivorans (RiDD) (Roseburia inulinivorans) (protein)
# chain: MGNYDSTPIAKSDRIKRLVDHLYAKMPEIEAARAELITESFKATEGQPVVMRKARAFEHILKNLPIIIRPEELIVGSTTIAPRGCQTYPEFSYEWLEAEFETVETRSADPFYISEETKKRLLAADAYWKGKTTSELATSYMAPETLRAMKHNFFTPGNYFYNGVGHVTVQYETVLAIGLNGVKEKVRKEMENCHFGDADYSTKMCFLESILISCDAVITYANRYAKMAEEMAEKETDAARRQELLTIARVCKNVPEFPAESFQEACQSFWFIQQVLQIESSGHSISPGRFDQYMYPYYEKDLKEGSLTREYAQELIDCIWVKLNDLNKCRDAASAEGFAGYSLFQNLIVGGQTVQGRDATNDLSFMCITASEHVFLPMPSLSIRVWHGSSKALLMRAAELTRTGIGLPAYYNDEVIIPALVHRGATMDEARNYNIIGCVEPQVPGKTDGWHDAAFFNMCRPLEMVFSNGYDNGEIASIQTGNVESFQSFDEFMEAYRKQMLYNIELMVNADNAIDYAHAKLAPLPFESCLVDDCIKRGMSAQEGGAIYNFTGPQGFGIANVADSLYTIKKLVFEEKRITMGELKKALEMNYGKGLDATTAGDIAMQVAKGLKDAGQEVGPDVIANTIRQVLEMELPEDVRKRYEEIHEMILELPKYGNDIDEVDELAREAAYFYTRPLETFKNPRGGMYQAGLYPVSANVPLGAQTGATPDGRLAHTPVADGVGPTSGFDISGPTASCNSVAKLDHAIASNGTLFNMKMHPTAMAGEKGLESFISLIRGYFDQQGMHMQFNVVDRATLLDAQAHPEKYSGLIVRVAGYSALFTTLSKSLQDDIIKRTEQADNR
# Experiments:
# [1] = test system: RiDD; assay: Hydrogen-driven conversion in a cell-free reactor (proof of concept, FIG. 2); assay type: biochemical, Roseburia inulinivorans; conditions: 10% (v/v) 1,2-propanediol, 1 atm hydrogen
# Experimental: In the simplest embodiment the “cell free reactor” would include only “catalytic” amounts of the enzymes described herein. Specifically, a catalytic amount is one molecule and anything greater than one enzyme molecule. In the data shown in FIG. 2 of this disclosure the cell free reactor includes the following; 10 μM of RiDD, 100 μM yeast alcohol dehydrogenase (YADH), and 200 μM of the soluble hydrogenase from Ralstonia metallidurans (formally Alcaligenes eutrophus). The reaction was carried out under strictly anaerobic conditions (oxygen-free argon gas) and initiated by the addition of the reduced RiDD-AE (50 μM final) and S-adenosylmethionine (1 μM). 100% hydrogen gas was maintained in the head space of the reactor at 1 atm and the reaction also included 1 mM NADH, 20 mM TRIS pH 7.9, and 1% glycerol.
# This experiment was performed in a 50 mL reactor with 20 mL liquid volume and the remaining headspace under 1 atm of oxygen-free hydrogen gas. Experimental conditions were as follows 20 mM Tris pH 7.9, 10% (v/v) 1,2-propanediol, 1% (v/v) glycerol 50 μM purified RiDD, 100 μM purified DhaT, 100 μM NAD+, and 100 μM purified H2ase. After a brief pre-incubation (20 min) period to insure strictly anaerobic conditions were achieved (less than 1 ppm O2), purified RiDD-AE in the reduced (formally [4Fe-4S]′) form was added to a final concentration of 50 μM to initiate the reaction. […]
# [2] = test system: OCC(O)CO; assay: purified protein, by the assay type
# [3] = test system: C[C@H](O)CO; assay: purified protein, by the assay type
# [4] = substrate: C[C@H](O)CO; assay: Coupled enzyme assay for the RiDD (NADH-dependent reduction of propionaldehyde by YADH); assay type: biochemical, Roseburia inulinivorans; conditions: other: substrate of RiDD; Michaelis-Menten fit, FIG. 7
# Excerpt: (§1) FIG. 5A depicts a chemical pathway describing how the conversion of glycerol, by an activated glycerol dehydratase can be easily monitored using purified DhaT and following the NADH-dependent reduction of 3-hydroxypropionaldehyde to 1,3-propanediol. Similarly, FIG. 5B depicts a chemical pathway for how the conversion of 1,2-propanediol, by an activated diol-dehydratase can be monitored by following the NADH-dependent reduction of propionaldehyde by YADH.
# (§2) A coupled enzyme assay for the CbGD and the RiDD was performed as previously described^5 with minor modifications. Where indicated, varying amounts of the substrate (specifically, glycerol, R-1,2-propanediol, or S-1,2-propanediol) were added from pure stock solutions purchased through Sigma Chemical Company™ in some cases the stocks were diluted with ddH2O in order to allow for accurate measurement of the substrate at the lower concentrations. In addition, when glycerol was used as the substrate for the CbGD, the enzyme YqhD was included in the assay in place of yeast alcohol dehydrogenase (YADH) and […]. YqhD is an aldehyde reductase capable of the NADPH-dependent reduction of several aldehydes, including 3-hydroxypropionaldehyde and was overexpressed and purified from E. coli as previously described^9.
# [5] = substrate: C[C@@H](O)CO; assay: as above; assay type: biochemical, Roseburia inulinivorans; conditions: other: substrate of RiDD; Michaelis-Menten fit, FIG. 7
# Excerpt: as §1, §2
molecule,measurement,setting,value
"CC(O)CO (racemic) [1,2-propanediol, propane-1,2-diol]","propanol titer from conversion of 1,2-propanediol","[1]; after 6 hours, 1% glycerol",~14 g/L
C. butyricum glycerol dehydratase (CbGD) (Clostridium butyricum),Km,[2],200 µM
same,Km,[3],800 µM
"OCC(O)CO [glycerol, propane-1,2,3-triol]",concentration of glycerol over the reaction,"[1]; 1% (v/v) glycerol, FIG. 2",remained unchanged
B1,Km,[4],500 µM
same,Km,[5],800 µM
